Tests used:
[1] = target: HLA-A*11:01; assay: IEDB peptide-MHC binding, cellular MHC/competitive/fluorescence; ≥ and ≤ were set here for values at or beyond the usual limits of such assays
[2] = target: HLA-A*31:01; assay: as above
[3] = target: HLA-A*68:01; assay: as above
[4] = target: HLA-A*68:02; assay: as above
[5] = target: HLA-A*02:02; assay: IEDB peptide-MHC binding, purified MHC/competitive/radioactivity; ≥ and ≤ were set here for values at or beyond the usual limits of such assays
[6] = target: HLA-A*02:03; assay: as above
[7] = target: HLA-A*02:06; assay: as above
[8] = target: HLA-A*03:01; assay: as above
[9] = target: HLA-A*01:01; assay: IEDB peptide-MHC binding, cellular MHC/competitive/fluorescence; ≥ and ≤ were set here for values at or beyond the usual limits of such assays; conditions: source organism: Vaccinia virus WR
[10] = target: HLA-A*02:01; assay: as above; conditions: source organism: Vaccinia virus WR
[11] = target: HLA-A*02:02; assay: as above; conditions: source organism: Vaccinia virus WR
[12] = target: HLA-A*02:06; assay: as above
[13] = target: HLA-A*23:01; assay: as above; conditions: source organism: Vaccinia virus WR
[14] = target: HLA-A*24:02; assay: as above; conditions: source organism: Vaccinia virus WR
[15] = target: HLA-A*26:01; assay: as above; conditions: source organism: Vaccinia virus WR
[16] = target: HLA-A*29:02; assay: as above; conditions: source organism: Vaccinia virus WR
[17] = target: HLA-A*30:02; assay: as above; conditions: source organism: Vaccinia virus WR
[18] = target: HLA-A*68:02; assay: IEDB peptide-MHC binding, purified MHC/competitive/radioactivity; ≥ and ≤ were set here for values at or beyond the usual limits of such assays
[19] = target: HLA-A*02:01; assay: as above; conditions: source organism: Vaccinia virus WR
[20] = target: HLA-A*03:01; assay: IEDB peptide-MHC binding, cellular MHC/competitive/fluorescence; ≥ and ≤ were set here for values at or beyond the usual limits of such assays; conditions: source organism: Mammarenavirus juninense
[21] = target: HLA-A*33:01; assay: as above
[22] = target: HLA-A*02:03; assay: as above; conditions: source organism: Vaccinia virus WR
[23] = target: HLA-A*31:01; assay: IEDB peptide-MHC binding, purified MHC/competitive/radioactivity; ≥ and ≤ were set here for values at or beyond the usual limits of such assays; conditions: source organism: Hepatitis B virus
[24] = target: HLA-A*23:01; assay: as above; conditions: source organism: Vaccinia virus WR
[25] = target: HLA-A*24:02; assay: as above; conditions: source organism: Vaccinia virus WR
[26] = target: HLA-A*30:02; assay: as above; conditions: source organism: Vaccinia virus WR
[27] = target: HLA-A*68:01; assay: as above; conditions: source organism: Hepatitis B virus
[28] = source organism: Hepatitis B virus
[29] = source organism: Vaccinia virus WR
[30] = source organism: Mammarenavirus juninense
[31] = source organism: Mammarenavirus choriomeningitidis

Sequence: SLYADSPSV
- IC50 [1, 28]: ≥ 70 µM
- IC50 [2, 28]: 14.6 µM
- IC50 [3, 28]: ≥ 70 µM
- IC50 [4, 28]: 13.7 µM
- IC50 [5, 28]: 0.012 µM
- IC50 [6, 28]: 0.0034 µM
- IC50 [7, 28]: 0.883 µM
- IC50 [8, 28]: 2.02 µM

Sequence: SQAKKPEVRI
- IC50 [9]: ≥ 70 µM
- IC50 [10]: 46.3 µM
- IC50 [11]: 10.7 µM
- IC50 [12, 29]: 5.86 µM
- IC50 [13]: 51.7 µM
- IC50 [14]: 32.1 µM
- IC50 [15]: ≥ 70 µM
- IC50 [16]: ≥ 70 µM
- IC50 [17]: ≥ 70 µM
- IC50 [6, 29]: 2.37 µM
- IC50 [18, 29]: 1.67 µM

Sequence: QQFANVISKI
- IC50 [9]: ≥ 70 µM
- IC50 [10]: 7.32 µM
- IC50 [13]: 12.2 µM
- IC50 [14]: ≥ 70 µM
- IC50 [15]: ≥ 70 µM
- IC50 [16]: ≥ 70 µM
- IC50 [17]: 9.29 µM
- IC50 [5, 29]: 0.051 µM
- IC50 [6, 29]: 0.0017 µM
- IC50 [7, 29]: 0.863 µM
- IC50 [18, 29]: 1.05 µM

Sequence: HLYSHPIIL
- IC50 [12, 28]: 9.45 µM
- IC50 [1, 28]: ≥ 70 µM
- IC50 [2, 28]: 46 µM
- IC50 [3, 28]: ≥ 70 µM
- IC50 [4, 28]: 22.7 µM
- IC50 [5, 28]: 0.081 µM
- IC50 [6, 28]: 0.018 µM
- IC50 [8, 28]: 0.171 µM

Sequence: TQVKELGIAI
- IC50 [9]: ≥ 70 µM
- IC50 [13]: 38.6 µM
- IC50 [14]: ≥ 70 µM
- IC50 [15]: 49.6 µM
- IC50 [16]: ≥ 70 µM
- IC50 [17]: ≥ 70 µM
- IC50 [19]: 1.76 µM
- IC50 [5, 29]: 2.17 µM
- IC50 [6, 29]: 0.704 µM
- IC50 [7, 29]: 0.0039 µM
- IC50 [18, 29]: 1.18 µM

Sequence: ACQEAVKLK
- IC50 [20]: 16.7 µM
- IC50 [1, 30]: 6.7 µM
- IC50 [2, 30]: ≥ 70 µM
- IC50 [21, 30]: ≥ 70 µM
- IC50 [3, 30]: ≥ 70 µM

Sequence: CQCTVQEFI
- IC50 [9]: 28.5 µM
- IC50 [13]: 44.5 µM
- IC50 [14]: 29 µM
- IC50 [15]: 24.8 µM
- IC50 [16]: 20.5 µM
- IC50 [17]: ≥ 70 µM
- IC50 [19]: 2.2 µM
- IC50 [5, 29]: 2.05 µM
- IC50 [6, 29]: 4.79 µM
- IC50 [7, 29]: 1.13 µM
- IC50 [18, 29]: 1.73 µM

Sequence: LQDIVNEHDI
- IC50 [9]: ≥ 70 µM
- IC50 [10]: 23.3 µM
- IC50 [11]: 7.63 µM
- IC50 [22]: 38.2 µM
- IC50 [12, 29]: 10.8 µM
- IC50 [13]: ≥ 70 µM
- IC50 [14]: ≥ 70 µM
- IC50 [15]: ≥ 70 µM
- IC50 [16]: ≥ 70 µM
- IC50 [17]: ≥ 70 µM
- IC50 [4, 29]: ≥ 70 µM

Sequence: LLDYQGMLPV
- IC50 [1, 28]: 28.5 µM
- IC50 [3, 28]: ≥ 70 µM
- IC50 [7, 28]: 0.0026 µM
- IC50 [8, 28]: 0.063 µM
- IC50 [23]: 4.01 µM
- IC50 [18, 28]: 0.626 µM

Sequence: ILRGTSFVYV
- IC50 [1, 28]: ≥ 70 µM
- IC50 [3, 28]: ≥ 70 µM
- IC50 [4, 28]: 37.2 µM
- IC50 [5, 28]: 0.0039 µM
- IC50 [6, 28]: 0.0022 µM
- IC50 [7, 28]: 0.083 µM
- IC50 [8, 28]: 4.77 µM
- IC50 [23]: 1.36 µM

Sequence: RQVSVKLLI
- IC50 [9]: 23.8 µM
- IC50 [11]: 17.9 µM
- IC50 [15]: 6.34 µM
- IC50 [16]: ≥ 70 µM
- IC50 [4, 29]: 15.1 µM
- IC50 [19]: 0.25 µM
- IC50 [6, 29]: 0.254 µM
- IC50 [7, 29]: 0.00013 µM
- IC50 [24]: 0.835 µM
- IC50 [25]: 2.54 µM
- IC50 [26]: 0.519 µM

Sequence: FIIFLFILL
- IC50 [1, 28]: 8.98 µM
- IC50 [4, 28]: 10.1 µM
- IC50 [5, 28]: 0.627 µM
- IC50 [6, 28]: 1.05 µM
- IC50 [7, 28]: 0.9 µM
- IC50 [8, 28]: 0.953 µM
- IC50 [23]: 0.45 µM
- IC50 [27]: 3.2 µM

Sequence: FQESFYEDI
- IC50 [9]: ≥ 70 µM
- IC50 [10]: 12.9 µM
- IC50 [15]: ≥ 70 µM
- IC50 [16]: 58.2 µM
- IC50 [17]: ≥ 70 µM
- IC50 [4, 29]: 36.8 µM
- IC50 [5, 29]: 2.28 µM
- IC50 [6, 29]: 4.42 µM
- IC50 [7, 29]: 0.185 µM
- IC50 [24]: 0.263 µM
- IC50 [25]: 0.44 µM

Sequence: TLMSIVSSLH
- IC50 [1, 31]: 9.54 µM
- IC50 [2, 31]: 11.4 µM
- IC50 [21, 31]: ≥ 70 µM
- IC50 [3, 31]: 6.62 µM
- IC50 [8, 31]: 3.95 µM

Reference: the Immune Epitope Database (IEDB)
